Source: PMC12847411, “High-affinity optimization potential of the virus neutralizing antibody with twin cysteine-stabilized complementarity-determining region 3” (Frontiers in Cellular and Infection Microbiology, 2025)
Residue numbers refer to the chain shown, from its start.

B1: AZD8895-450 (antibody, V domains shown)
VH: QMQLVQSGPEVKKPGTSVKVSCKASGFTFMSSAVQWVRQARGQRLEWIGWIVIGSGNTNYAQKFQERVTITRDMSTSTAYMELSSLRSEDTAVYYCAANYCSSTICSDGMDIWGQGTMVTVSS
VL: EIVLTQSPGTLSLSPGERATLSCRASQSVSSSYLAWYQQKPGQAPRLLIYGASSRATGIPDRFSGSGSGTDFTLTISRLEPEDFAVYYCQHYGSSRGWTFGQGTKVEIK
B2: AZD8895-275 (antibody, V domains shown)
VH: B1 VH with N99P, S103L, I105Y, M110F
VL: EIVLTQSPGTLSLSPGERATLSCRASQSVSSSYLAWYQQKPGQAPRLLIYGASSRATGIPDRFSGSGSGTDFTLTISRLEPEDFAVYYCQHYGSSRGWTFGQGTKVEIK
B3: AZD8895-449 (antibody, V domains shown)
VH: B1 VH with N99P, S103L, I105N, M110F
VL: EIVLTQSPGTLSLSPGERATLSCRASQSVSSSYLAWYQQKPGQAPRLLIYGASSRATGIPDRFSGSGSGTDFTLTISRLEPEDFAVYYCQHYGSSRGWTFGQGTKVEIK
B4: AZD8895 (antibody, V domains shown)
VH: B1 VH with N99P, T104I, I105S, S107N, M110F
VL: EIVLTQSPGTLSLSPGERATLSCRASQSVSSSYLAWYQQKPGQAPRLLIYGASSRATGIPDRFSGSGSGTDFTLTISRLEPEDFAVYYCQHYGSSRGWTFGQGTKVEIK
notes: also called seed antibody AZD8895; seed mAb; source: HEK293, transient transfection, purified (HiTrap Protein A HP)
B5: AZD8895-25 (antibody, V domains shown)
VH: B1 VH with N99P, S103L, I105C, M110F
VL: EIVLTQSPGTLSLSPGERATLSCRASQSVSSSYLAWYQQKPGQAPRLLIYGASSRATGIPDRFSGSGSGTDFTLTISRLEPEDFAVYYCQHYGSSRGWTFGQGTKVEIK

Molecular target: recombinant Fc-fused SARS-CoV-2 RBD protein (Severe acute respiratory syndrome …, UniProt P0DTC2)
Assay: SPR
Details: both partners purified

Row | Binder | Kd [nM]
1 | B1 | 16.5
2 | B2 | 8.42
3 | B3 | 13.2
4 | B4 | 12.6
5 | B5 | 4.79
